Target: SAMHD1 wt (human) (UniProt Q9Y3Z3)
Assay: AFM

SAMHD1 wt (human), sequence (Q9Y3Z3 whole entry): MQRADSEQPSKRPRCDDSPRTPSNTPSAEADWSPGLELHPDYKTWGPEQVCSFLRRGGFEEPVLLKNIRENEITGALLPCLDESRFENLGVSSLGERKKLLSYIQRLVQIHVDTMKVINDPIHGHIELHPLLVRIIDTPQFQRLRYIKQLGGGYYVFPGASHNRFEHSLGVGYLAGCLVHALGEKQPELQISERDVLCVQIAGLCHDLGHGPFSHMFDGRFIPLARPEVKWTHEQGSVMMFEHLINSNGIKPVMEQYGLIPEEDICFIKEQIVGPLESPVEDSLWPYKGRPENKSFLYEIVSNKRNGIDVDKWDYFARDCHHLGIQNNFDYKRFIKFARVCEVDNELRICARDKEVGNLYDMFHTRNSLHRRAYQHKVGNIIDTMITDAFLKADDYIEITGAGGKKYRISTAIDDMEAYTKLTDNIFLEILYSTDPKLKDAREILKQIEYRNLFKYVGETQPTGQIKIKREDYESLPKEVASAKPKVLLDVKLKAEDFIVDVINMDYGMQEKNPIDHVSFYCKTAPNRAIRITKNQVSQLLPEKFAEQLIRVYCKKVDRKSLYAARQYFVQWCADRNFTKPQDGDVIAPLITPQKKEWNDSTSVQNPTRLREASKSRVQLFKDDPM

Substance	binding signal (% ssDNA ends bound)	binding signal (% ssRNA ends bound)
AFM DNA, 295 bp duplex with 60 nt ssDNA overhang	26	
GGUUAUUCUCUUAUUUAUUCUAUCUAUCUCUCUCUUCUCUAUUUCCUCACAUCCUCUCUCACUCUCUAUCUCUAUCUCCUCUCUCUUCUCUCUCUCUCUCUCUCCUCUCUAUAUUCUUCUCUCUUCUCUCCUCUCCUCUCUCUCUCUCUUUAUUCUUCCACUUUUUUCCUUCUCACUUCUCUUCUUCUUUAUUCUUCUCAUCUCAUCUCAUCUCAUCUCAUCUCAUCUCAUCUCAUCUCAUCUCAUCUCAUCUCAUCUCAUCUCAUCUCAUCUCAUCUCAUCUCAUCUCAUCUCAUCUCAUCUCAGG / TGAGAAGAATAAAGAAGAAGAGAAGTGAGAAGGAAAAAAGTGGAAGAATAAAGAGAGAGAGAGAGGAGAGGAGAGAAGAGAGAAGAATATAGAGAGGAGAGAGAGAGAGAGAGAAGAGAGAGGAGATAGAGATAGAGAGTGAGAGAGGATGTGAGGAAATAGAGAAGAGAGAGATAGATAGAATAAATAAGAGAATAACC [AFM RNA, 200 bp RNA:DNA duplex with 102 nt ssRNA overhang]		84
